# Reference: the supplement of paper PMC12042874
# ± gives the uncertainty stated by the source.
# Assay: amyloid nucleation score (Sup35N fusion, yeast selection) (log enrichment); library NNK2; higher = more nucleation; inactive = no reads after selection
# Procedure, shortened: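 After 24 hours of induction with 100 μM copper sulfate, psi-negative yeast expressing peptides of 20 random codons fused to Sup35N were grown for 7 days at 30°C on medium lacking adenine and uracil. Input and output plasmid inserts were sequenced with Illumina, and sequences with under 100 input reads were discarded. Scores for nucleation are the DiMSum log enrichment of output over input reads, centred on the mode score of non-aggregating sequences.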
row,Substance,amyloid nucleation score
1,VMQVVLGNMLMRRSQVLYNW,-0.62 ± 0.41
2,AYKNYIPVVSVH,-1.37 ± 1.1
3,YIFSIS,-1.26 ± 0.62
4,QYPDSCS,-0.381 ± 0.79
5,YVRMMTNSTLLGRGLKYLCV,0.429 ± 0.62
6,ELGVTNLDVDRHIDY,-0.038 ± 1.1
7,SIGPLLHMCSFVFLEVRIIF,1.83 ± 0.15
8,RYRRFVIGVQWQRLSRG,-0.19 ± 1.1
9,SGSGGSSLLFTIGEQGRRRI,-0.876 ± 0.45
10,YNRNRCEVWRLFCLFCLLCF,2 ± 0.089
11,FEDFLCFSGMRFVFELCADT,-0.917 ± 0.78
12,SKRFRLTIDGIGVYRW,0.649 ± 0.22
13,DRYVSV,0.455 ± 0.43
14,FVDYVTCSQYVNIFRDTLGL,-0.677 ± 0.38
15,SCLLWAF,-1.54 ± 1.1
16,TLLSTEMHDYKLLARQRCHP,1.24 ± 0.38
17,VYVRFWESSSCYTRGRNGWN,3.08 ± 0.086
18,PFSNMLASAFNFILITCSDL,inactive
19,ESIVDWSYCFLTTFMSPRWA,0.193 ± 0.65
20,KAFFFPQFCCIYGLGM,8.903 ± 0.035
21,CMFSLNGAYSMPHVKMSMCM,-0.786 ± 0.46
22,RCERWCPWNFHNQAL,0.449 ± 0.51

row,Substance,amyloid nucleation score
1,VFFVHSYND,inactive
2,QTTMKVSFSFLMRGGNPQVM,4.56 ± 0.11
3,VVTHYLQIYPRFSMHFFVSV,1.33 ± 0.22
4,TPVQDNYSYFIFKPIDESIA,2.19 ± 0.12
5,SPLSSKDCYGKTERSVWHVM,0.588 ± 0.4
6,YWANMVG,-0.328 ± 0.48
7,KCWLLGHWEDFCTLSKMERN,inactive
8,IYRTYYGMNACLINLCMFDN,7.734 ± 0.055
9,MWPHRFM,0.72 ± 0.28
10,SDIYRSSRLQ,0.179 ± 0.33
11,CMKGVNSLDIASVSQFNLNR,2.28 ± 0.13
12,GSYPGRLFTCVKMGVT,0.363 ± 0.65
13,WVLDVSFTVVFKMIHGVVSL,3.9 ± 0.14
14,YDAMFS,1.09 ± 0.45
15,FSWVIYYE,-1.27 ± 1.1
16,LTWSVVRKYSIALRCGGR,-0.002 ± 0.63
17,SIVMFVCDLRNQPTAIFRDR,8.256 ± 0.074
18,TLDYGIFTVVNSTLWLYRSV,inactive
19,IGESLRYIRRVILSMIFHLA,1.18 ± 0.66
20,SDAFGRRHSSLAM,1.56 ± 0.14
21,MRYYWMWHKVVM,0.069 ± 0.29
22,YGSVR,0.669 ± 0.37

row,Substance,amyloid nucleation score
1,RCGFNLFTS,-0.883 ± 0.76
2,NNFWFKLQIM,6.18 ± 0.064
3,FFFLTHGWEPTVMKEIKSAM,inactive
4,FICALTMYICSLY,7.389 ± 0.027
5,RGGRSVRTVNWPSYMMSVPD,-0.076 ± 0.3
6,LYKYLCAIIKNVDKVVPLRM,-0.904 ± 0.49
7,RWARQRAWTRLLNGE,1.18 ± 0.48
8,TYATNSRRNRNVYLRPHCQI,0.117 ± 0.3
9,VWKINISWRPSLSLLVIRLV,-0.594 ± 0.27
10,QIFTKRVRTNLPFQFSNYVG,0.479 ± 0.74
11,YSPLLTLWKIGRIWIAFMIA,0.148 ± 1
12,GKIRIENGLRGSLGDIRHNI,-0.623 ± 1
13,FKFYYVYYDITFYEC,-0.454 ± 0.28
14,ALPPPVKELPWISRFRQWGR,1.22 ± 0.47
15,FRRRQNRAHKYGALNYSMGS,inactive
16,ILYVACSNMRCPILFMAGA,2.12 ± 0.12
17,FVHFMRVAASRNTNFYNLLW,inactive
18,RWCSLDSQSDYSSM,-0.681 ± 1
19,PEILMSDGIRKLCSVYVFLR,inactive
20,IRNQWMQVSQVFSVSRAVET,0.369 ± 0.3
21,RLSSHTVMAWVSCNWGDFTV,9.919 ± 0.065
22,ACVWNDIEGMNTFTVNSFFL,3.39 ± 0.16

row,Substance,amyloid nucleation score
1,PSLWFLCRYGVTSIGLVFTL,-0.159 ± 1.1
2,GLSCVFRMRIE,6.266 ± 0.05
3,GESEVLSRRRQFFGRLWVCM,inactive
4,IPGSS,-0.137 ± 0.54
5,QSTHMNT,-0.364 ± 0.48
6,FYYVFYLNSLAVAGHLRILD,inactive
7,FNKDMSNKFNSDKGELSSFM,inactive
8,YSYVGFIF,1.49 ± 0.32
9,VFIVMYSKFLKHVYGTTLTN,inactive
10,ILRECFIFSHRKTHLLKFWL,-0.622 ± 1.1
11,AWYKFIITMPFIFKSDITST,-0.454 ± 0.54
12,AYFTYDNANLFDPFTRYTIE,0.073 ± 0.55
13,DDSHLNCDNRIVISMLRNGN,0.528 ± 0.32
14,RTYEMVIKFSGSLVRAFRVL,-0.068 ± 0.79
15,GGRMHCARRTRMWVHLDAGM,5.823 ± 0.049
16,LFMRPCDLFEVVLSTVRLVW,1.29 ± 0.52
17,SQPSDWVYFNVGYCCVLMCL,9.398 ± 0.027
18,RVMEYEILLIFCI,0.135 ± 0.65
19,WFPLGQHEKAEILSLMIVDR,-0.154 ± 0.49
